Assay results taken from paper PMC11185801 (bioRxiv, 2024).

Molecular target: the molecule itself
Assay: cryo-EM structure

| Protein | stoichiometry N |
| --- | --- |
| human Kir7.1 R162Q mutant (natural protein) MDSSNCKVIAPLLSQRYRRMVTKDGHSTLQMDGAQRGLAYLRDAWGILMDMRWRWMMLVFSASFVVHWLVFAVLWYVLAEMNGDLELDHDAPPENHTICVKYITSFTAAFSFSLETQLTIGYGTMFPSGDCPSAIALLAIQMLLGLMLEAFITGAFVAKIAQPKNRAFSIRFTDTAVVAHMDGKPNLIFQVANTRPSPLTSVRVSAVLYQERENGKLYQTSVDFHLDGISSDECPFFIFPLTYYHSITPSSPLATLLQHENPSHFELVVFLSAMQEGTGEICQRRTSYLPSEIMLHHCFASLLTRGSKGEYQIKMENFDKTVPEFPTPLVSKSPNRTDLDIHINGQSIDNFQISETGLTE | 4 |
| human Kir7.1 E276A mutant (natural protein) MDSSNCKVIAPLLSQRYRRMVTKDGHSTLQMDGAQRGLAYLRDAWGILMDMRWRWMMLVFSASFVVHWLVFAVLWYVLAEMNGDLELDHDAPPENHTICVKYITSFTAAFSFSLETQLTIGYGTMFPSGDCPSAIALLAIQMLLGLMLEAFITGAFVAKIARPKNRAFSIRFTDTAVVAHMDGKPNLIFQVANTRPSPLTSVRVSAVLYQERENGKLYQTSVDFHLDGISSDECPFFIFPLTYYHSITPSSPLATLLQHENPSHFELVVFLSAMQAGTGEICQRRTSYLPSEIMLHHCFASLLTRGSKGEYQIKMENFDKTVPEFPTPLVSKSPNRTDLDIHINGQSIDNFQISETGLTE | 4 |
